Values belong to the binder of their own block, whether it stands above or below them.
How the values were obtained:
[1] = molecular target: unmethylated mononucleosome (H3K9me0), 147 bp 601 DNA 5'-fluorescein-labeled; assay: fluorescence polarisation; core mononucleosomes (147 bp 601 DNA, 5' fluorescein) at 150 nM, enzyme titrated; 100 mM Tris pH 8, 100 mM KCl, 1 mM MgCl2, 20 μM ZnSO4, 10 mM BME, 0.1% NP-40
[2] = molecular target: N-terminally 6xHis-tagged G9a ANK-SET; assay: pull-down; His:G9a coexpressed with MBP:G9a or MBP:GLP in E. coli; sequential cobalt and amylose resin purification; SyPRO Red stained bands quantified
[3] = molecular target: fluoresceinated H3(1-20) K9me2 peptide, P68431; assay: fluorescence polarisation; fluoresceinated H3(1-20) K9me1 or K9me2 peptide at 150 nM, enzyme titrated; 100 mM Tris pH 8, 100 mM KCl, 1 mM MgCl2, 20 μM ZnSO4, 10 mM BME, 0.1% NP-40
[4] = molecular target: G9a ANK-SET, tags removed; assay: SEC-MALS; His and MBP tags removed; injected at 10 μM, Shodex KW804 column, 0.4 ml per minute

stoichiometry N (MBP protein per His:G9a) [2]: 1
B2: N-terminally Maltose-Binding Protein tagged G9a ANK-SET (domain or fragment)
chain: DAPGRADTSQPSARMRGHGEPRRPPCDPLADTIDSSGPSLTLPNGGCLSAVGLPPGPGREALEKALVIQESERRKKLRFHPRQLYLSVKQGELQKVILMLLDNLDPNFQSDQQSKRTPLHAAAQKGSVEICHVLLQAGANINAVDKQQRTPLMEAVVNNHLEVARYMVQLGGCVYSKEEDGSTCLHHAAKIGNLEMVSLLLSTGQVDVNAQDSGGWTPIIWAAEHKHIDVIRMLLTRGADVTLTDNEENICLHWASFTGSAAIAEVLLNAQCDLHAVNYHGDTPLHIAARESYHDCVLLFLSRGANPELRNKEGDTAWDLTPERSDVWFALQLNRKLRLGVGNRAVRTEKIICRDVARGYENVPIPCVNGVDGEPCPEDYKYISENCETSTMNIDRNITHLQHCTCVDDCSSSNCLCGQLSIRCWYDKDGRLLQEFNKIEPPLIFECNQACSCWRSCKNRVVQSGIKVRLQLYRTAKMGWGVRALQTIPQGTFICEYVGELISDAEADVREDDSYLFDLDNKDGEVYCIDARYYGNISRFINHLCDPNIIPVRVFMLHQDLRFPRIAFFSSRDIRTGEELGFDYGDRFWDIKSKYFTCQCGSEKCKHSAEAIALEQSRLARLDPHPELLPDLSSLPPINT

stoichiometry N (MBP protein per His:G9a) [2]: 1
B4: N-terminally Maltose-Binding Protein tagged GLP ANK-SET (domain or fragment)
chain: QEKSLAAEGRADTTTGSIAGAPEDERSQSTAPQAPECFDPAGPAGLVRPTSGLSQGPGKETLESALIALDSEKPKKLRFHPKQLYFSARQGELQKVLLMLVDGIDPNFKMEHQSKRSPLHAAAEAGHVDICHMLVQAGANIDTCSEDQRTPLMEAAENNHLDAVKYLIKAGAQVDPKDAEGSTCLHLAAKKGHYDVVQYLLSNGQMDVNCQDDGGWTPMIWATEYKHVELVKLLLSKGSDINIRDNEENICLHWAAFSGCVDIAEILLAAKCDLHAVNIHGDSPLHIAARENRYDCVVLFLSRDSDVTLKNKEGETPLQCASLSSQVWSALQMSKALRDSAPDKPVAVEKTVSRDIARGYERIPIPCVNAVDSELCPTNYKYVSQNCVTSPMNIDRNITHLQYCVCVDDCSSSTCMCGQLSMRCWYDKDGRLLPEFNMAEPPLIFECNHACSCWRNCRNRVVQNGLRARLQLYRTQDMGWGVRSLQDIPLGTFVCEYVGELISDSEADVREEDSYLFDLDNKDGEVYCIDARFYGNVSRFINHHCEPNLVPVRVFMSHQDLRFPRIAFFSTRLIQAGEQLGFDYGERFWDVKGKLFSCRCGSSKCRHSSAALAQRQASAAQEPQENGLPDTSSAAAADPL
modifications: not checked

The remaining lines, values behind:

B1: G9a ANK-SET homodimer (complex)
chain: B2 chain
modifications: not checked
Kd [1]: 6 to 7 µM

B3: GLP ANK-SET homodimer (complex)
chain: B4 chain
modifications: not checked
fold reduction of binding (reference not clearly named) [3]: 12.5 times | Kd [1]: 26.3 µM

B5: G9a-GLP ANK-SET heterodimer (complex)
chain 1: B2 chain
chain 2: B4 chain
modifications: not checked
Kd [1]: 6 to 7 µM

B6: GLP ANK-SET, tags removed (domain or fragment)
chain: B4 chain
modifications: not checked
stoichiometry N [4]: 1 GLP per G9a
